From publication PMC6588359 come the findings set out here.

The subject of data set [1] is amyloid-β40 (Aβ40). Put plainly: native MS; native nano-ESI-IMS-MS, positive ionization; Aβ40 alone or 1:1 mol/mol with Aβ_(16–22); samples incubated 5 min at 37°C without agitation, analysed immediately following mixing.
Data set [2] concerns the target amyloid-β40 (Aβ40).

Take Aβ_(16–22): in the data set on amyloid-β40 (Aβ40) [1], the “percent heterodimers by total ion count” value was 1.0 ± 0.5%.

Regarding Aβ_(16–22) (peptide), in the data set with amyloid-β40 (Aβ40) [2], the ThT fluorescence: average t1/2 of Aβ40 aggregation with sonicated Aβ (16–22) fibrils was determined as 6.2 h and the ThT fluorescence: average t1/2 of Aβ40 aggregation with unfragmented (unsonicated) Aβ (16–22) fibrils turned out to be 7.2 h.

What is called stoichiometry N is a count of units in the complex or per binding partner. In the data set with amyloid-β40 (Aβ40) [1], amyloid-β40 (Aβ40) (peptide) returned a stoichiometry N of 1.
